*1 amine or outer side, *2 acyl side, *3 side chain or, on linkers, in order; H or OH if unused. Bridges are numbered along the chain shown (N, C = ends). Primed or numbered codes have the meaning given here. Where no end group is shown, it is not given here. [ ]: non-standard residue; d: D form. The star is where a group is joined. bMe2Nal(2S,3R) = beta-methyl-2-naphthylalanine (2S,3R), C[C@H](c1ccc2ccccc2c1)[C@H](N[*:1])C(=O)[*:2]; 4AcDPhe = D-(4-acyl)phenylalanine, CC(=O)c1ccc(C[C@@H](N[*:1])C(=O)[*:2])cc1; Phe(4-OMe)″ = 4-methoxyphenylalanine, COc1ccc(C[C@H](N[*:1])C(=O)[*:2])cc1; Trp(7-Ph) = N[C@@H](Cc1c[nH]c2c(-c3ccccc3)cccc12)C(=O)O; Trp(7-Me) = Cc1cccc2c(C[C@H](N)C(=O)O)c[nH]c12; Phe(3R-Me) = C[C@H](c1ccccc1)[C@H](N)C(=O)O; dPhe(4-NH2) = Nc1ccc(C[C@@H](N)C(=O)O)cc1; Phe(4-NH2) = Nc1ccc(C[C@H](N)C(=O)O)cc1; FPrpTriazoleMe_Acid = not defined here; 2Nal = N[C@@H](Cc1ccc2ccccc2c1)C(=O)O; AEF = NCCOc1ccc(C[C@H](N)C(=O)O)cc1; αMeF = C[C@](N)(Cc1ccccc1)C(=O)O; Pen = CC(C)(S)[C@H](N)C(=O)O; αMeK = C[C@](N)(CCCCN)C(=O)O; αMeC = C[C@](N)(CS)C(=O)O; Thp = NC1(C(=O)O)CCOCC1; Abu = CC[C@H](N)C(=O)O; Ac3c = NC1(C(=O)O)CC1; BH = not defined here; Boc = CC(C)(C)OC(=O)*; pr = not defined here; Piv = CC(C)(C)C(=O)*; Propionyl = CCC(=O)*
T1: human IL-23R (interleukin-23 receptor) (human, UniProt Q5VWK5 24-629)
T1 sequence (looked up): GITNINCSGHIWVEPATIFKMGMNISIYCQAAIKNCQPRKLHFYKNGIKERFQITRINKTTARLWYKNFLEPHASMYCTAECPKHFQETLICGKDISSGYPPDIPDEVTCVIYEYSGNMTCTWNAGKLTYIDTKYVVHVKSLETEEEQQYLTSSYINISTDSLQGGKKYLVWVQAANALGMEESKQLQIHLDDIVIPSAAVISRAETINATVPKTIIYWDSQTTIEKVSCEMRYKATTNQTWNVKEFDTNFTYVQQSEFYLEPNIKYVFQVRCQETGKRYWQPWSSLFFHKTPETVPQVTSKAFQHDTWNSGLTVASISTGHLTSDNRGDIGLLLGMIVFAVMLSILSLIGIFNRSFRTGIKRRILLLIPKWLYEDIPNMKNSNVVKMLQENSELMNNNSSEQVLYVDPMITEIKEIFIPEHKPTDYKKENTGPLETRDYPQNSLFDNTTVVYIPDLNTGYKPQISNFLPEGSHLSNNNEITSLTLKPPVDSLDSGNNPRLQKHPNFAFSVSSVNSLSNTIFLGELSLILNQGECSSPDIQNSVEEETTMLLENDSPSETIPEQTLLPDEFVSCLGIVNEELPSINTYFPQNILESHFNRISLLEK

B1: Compound No. 317 (peptide)
peptide: XNTXKXXXXENX
modifications: MeCO-Pen-N-T-7MeW-K(Ac)-Pen-AEF-2Nal-Acpx-E-N-THP---CONH2; cyclized: Pen-Pen disulfide bond
B2: Compound No. 12 (peptide)
peptide: RXQTWQCFXXENN
modifications: not fully specified; Ac-[(D)Arg]-[Abu]-Q-T-W-Q-[Cys]-Phe[4-(2-aminoethoxy)]-[2-Nal]-[THP]-E-N-N-ac; cyclized: Abu-Cys thioether bond
B3: Compound No. 315 (peptide)
peptide: Ac-[dR][Pen]NT[Trp(7-Me)]K(Ac)[Pen][AEF][2Nal][Ac3c]ENH[dPhe(4-NH2)]-NH2
modifications: disulfide 2-7
SMILES: CC(=O)NCCCC[C@@H]1NC(=O)[C@H](Cc2c[nH]c3c(C)cccc23)NC(=O)[C@H]([C@@H](C)O)NC(=O)[C@H](CC(N)=O)NC(=O)[C@@H](NC(=O)[C@@H](CCCNC(=N)N)NC(C)=O)C(C)(C)SSC(C)(C)[C@@H](C(=O)N[C@@H](Cc2ccc(OCCN)cc2)C(=O)N[C@@H](Cc2ccc3ccccc3c2)C(=O)NC2(C(=O)N[C@@H](CCC(=O)O)C(=O)N[C@@H](CC(N)=O)C(=O)N[C@@H](Cc3c[nH]cn3)C(=O)N[C@H](Cc3ccc(N)cc3)C(N)=O)CC2)NC1=O
B4: Compound No. 313 (peptide)
peptide: Ac-[dR][Pen]NT[Trp(7-Me)]K(Ac)[Pen][AEF][2Nal][Thp]EN[Phe(3R-Me)]-NH2
modifications: disulfide 2-7
SMILES: CC(=O)NCCCC[C@@H]1NC(=O)[C@H](Cc2c[nH]c3c(C)cccc23)NC(=O)[C@H]([C@@H](C)O)NC(=O)[C@H](CC(N)=O)NC(=O)[C@@H](NC(=O)[C@@H](CCCNC(=N)N)NC(C)=O)C(C)(C)SSC(C)(C)[C@@H](C(=O)N[C@@H](Cc2ccc(OCCN)cc2)C(=O)N[C@@H](Cc2ccc3ccccc3c2)C(=O)NC2(C(=O)N[C@@H](CCC(=O)O)C(=O)N[C@@H](CC(N)=O)C(=O)N[C@H](C(N)=O)[C@H](C)c3ccccc3)CCOCC2)NC1=O
B5: Compound No. 305 (peptide)
peptide: H-[dR][Pen]NT[Trp(7-Me)]K(Ac)[Pen][AEF](Boc)[2Nal][Thp]EN[αMeF]-NH2
modifications: disulfide 2-7
SMILES: CC(=O)NCCCC[C@@H]1NC(=O)[C@H](Cc2c[nH]c3c(C)cccc23)NC(=O)[C@H]([C@@H](C)O)NC(=O)[C@H](CC(N)=O)NC(=O)[C@@H](NC(=O)[C@H](N)CCCNC(=N)N)C(C)(C)SSC(C)(C)[C@@H](C(=O)N[C@@H](Cc2ccc(OCCNC(=O)OC(C)(C)C)cc2)C(=O)N[C@@H](Cc2ccc3ccccc3c2)C(=O)NC2(C(=O)N[C@@H](CCC(=O)O)C(=O)N[C@@H](CC(N)=O)C(=O)N[C@@](C)(Cc3ccccc3)C(N)=O)CCOCC2)NC1=O
B6: Compound No. 308 (peptide)
peptide: Ac-[dR][Pen]NT[Trp(7-Me)]K(Ac)[Pen][AEF](Ac)[2Nal][Ac3c]EN[Thp]-NH2
modifications: disulfide 2-7
SMILES: CC(=O)NCCCC[C@@H]1NC(=O)[C@H](Cc2c[nH]c3c(C)cccc23)NC(=O)[C@H]([C@@H](C)O)NC(=O)[C@H](CC(N)=O)NC(=O)[C@@H](NC(=O)[C@@H](CCCNC(=N)N)NC(C)=O)C(C)(C)SSC(C)(C)[C@@H](C(=O)N[C@@H](Cc2ccc(OCCNC(C)=O)cc2)C(=O)N[C@@H](Cc2ccc3ccccc3c2)C(=O)NC2(C(=O)N[C@@H](CCC(=O)O)C(=O)N[C@@H](CC(N)=O)C(=O)NC3(C(N)=O)CCOCC3)CC2)NC1=O
B7: Compound No. 312 (peptide)
peptide: XNTXKXXXKKNF
modifications: MeCO-Pen-N-T-7MeTrp-K(Ac)-Pen-AEF-2Nal-aMeK-K(Ac)-N-bMePhe(S,R)-CONH2; cyclized: Pen-Pen disulfide bond
B8: Compound No. 316 (peptide)
peptide: Ac-[dR][Pen]NT[Trp(7-Me)]K(Ac)[Pen][AEF][2Nal][Ac3c]ENH[4AcDPhe]-NH2
modifications: disulfide 2-7
SMILES: CC(=O)NCCCC[C@@H]1NC(=O)[C@H](Cc2c[nH]c3c(C)cccc23)NC(=O)[C@H]([C@@H](C)O)NC(=O)[C@H](CC(N)=O)NC(=O)[C@@H](NC(=O)[C@@H](CCCNC(=N)N)NC(C)=O)C(C)(C)SSC(C)(C)[C@@H](C(=O)N[C@@H](Cc2ccc(OCCN)cc2)C(=O)N[C@@H](Cc2ccc3ccccc3c2)C(=O)NC2(C(=O)N[C@@H](CCC(=O)O)C(=O)N[C@@H](CC(N)=O)C(=O)N[C@@H](Cc3c[nH]cn3)C(=O)N[C@H](Cc3ccc(C(C)=O)cc3)C(N)=O)CC2)NC1=O
B9: Compound No. 310 (peptide)
peptide: Ac-[dR]CNT[Trp(7-Me)]K(Ac)[αMeC][AEF][2Nal][Ac3c]EN[Thp]-NH2
modifications: disulfide 2-7
SMILES: CC(=O)NCCCC[C@@H]1NC(=O)[C@H](Cc2c[nH]c3c(C)cccc23)NC(=O)[C@H]([C@@H](C)O)NC(=O)[C@H](CC(N)=O)NC(=O)[C@@H](NC(=O)[C@@H](CCCNC(=N)N)NC(C)=O)CSSC[C@@](C)(C(=O)N[C@@H](Cc2ccc(OCCN)cc2)C(=O)N[C@@H](Cc2ccc3ccccc3c2)C(=O)NC2(C(=O)N[C@@H](CCC(=O)O)C(=O)N[C@@H](CC(N)=O)C(=O)NC3(C(N)=O)CCOCC3)CC2)NC1=O
B10: Compound No. 306 (peptide)
peptide: Ac-[dR][Pen]NT[Trp(7-Me)][Phe(4-NH2)](Ac)[Pen][AEF][2Nal][Ac3c]EN[Thp]-NH2
modifications: disulfide 2-7
SMILES: CC(=O)Nc1ccc(C[C@@H]2NC(=O)[C@H](Cc3c[nH]c4c(C)cccc34)NC(=O)[C@H]([C@@H](C)O)NC(=O)[C@H](CC(N)=O)NC(=O)[C@@H](NC(=O)[C@@H](CCCNC(=N)N)NC(C)=O)C(C)(C)SSC(C)(C)[C@@H](C(=O)N[C@@H](Cc3ccc(OCCN)cc3)C(=O)N[C@@H](Cc3ccc4ccccc4c3)C(=O)NC3(C(=O)N[C@@H](CCC(=O)O)C(=O)N[C@@H](CC(N)=O)C(=O)NC4(C(N)=O)CCOCC4)CC3)NC2=O)cc1
B11: Compound No. 309 (peptide)
peptide: Ac-[dR][Pen]NT[Trp(7-Me)]K(Ac)[Pen][AEF][2Nal][Ac3c]ENHX-NH2
modifications: disulfide 2-7; not fully specified (residue 14); printed as MeCO-F[(D)Arg]-Pen-N -T-7MeW-K(Ac)-Pen-AEF-2Nal-Acpx-E-N-H-paf-CONH2
B12: Compound No. 307 (peptide)
peptide: Propionyl-[dR][Pen]QTWQ[Pen][AEF][bMe2Nal(2S,3R)][Thp]EN[Thp]-NH2
modifications: disulfide 2-7
SMILES: CCC(=O)N[C@H](CCCNC(=N)N)C(=O)N[C@@H]1C(=O)N[C@@H](CCC(N)=O)C(=O)N[C@@H]([C@@H](C)O)C(=O)N[C@@H](Cc2c[nH]c3ccccc23)C(=O)N[C@@H](CCC(N)=O)C(=O)N[C@H](C(=O)N[C@@H](Cc2ccc(OCCN)cc2)C(=O)N[C@H](C(=O)NC2(C(=O)N[C@@H](CCC(=O)O)C(=O)N[C@@H](CC(N)=O)C(=O)NC3(C(N)=O)CCOCC3)CCOCC2)[C@H](C)c2ccc3ccccc3c2)C(C)(C)SSC1(C)C

These binders were tested against T1, human IL-23R (interleukin-23 receptor) (assay: cell-based or functional assay).

PBMC pSTAT3 IC50 (nM)	pStat3 HTRF (nM), IC50, DB cells IL23R pSTAT3 cell assay [nM]	Binder
13		B1
21		FPrpTriazoleMe_Acid-[dR][Abu]QTWQC[Phe(4-OMe)″][2Nal][Thp]EN[Thp]-NH2 (thioether 2-7; reading uncertain) [Compound No. 25]
17		[dR]CQTWQ[Pen][AEF][2Nal][Thp]EN[αMeF]-NH2 (disulfide 2-7; not fully specified (N-terminus)) [Compound No. 23]
20		B2
	13.9	Ac-[dR][Abu]QT[Trp(7-Ph)]K(Ac)C[AEF][2Nal][αMeK]K(Ac)N[αMeF]-NH2 (thioether 2-7) [Compound No. 11]
75		Ac-[dR][Pen]NT[Trp(7-Me)]K(Ac)[Pen][AEF](BH)[2Nal][Thp]EN[αMeF]-NH2 (disulfide 2-7; reading uncertain) [Compound No. 314]
2		B3
21		B4
22		[dR][Abu]QTWQC[Phe(4-OMe)″][2Nal][Thp]EN[Thp]-NH2 (thioether 2-7) [Compound No. 22]
17		B5
21		[dR][Abu]QTWQC[Phe(4-OMe)″][2Nal][Thp]EN[Thp]-NH2 (thioether 2-7; not fully specified (N-terminus)) [Compound No. 21]
3.4		Ac-[dR][Abu]QTWQC[AEF][2Nal][Thp]ENF-NH2 (thioether 2-7) [Compound No. 17]
8		B6
90		B7
3.1		[dR]CQTWQ[Pen][AEF][2Nal][Thp]EN[Thp]-NH2 (disulfide 2-7; not fully specified (N-terminus)) [Compound No. 20]
2.1		B8
9.9		B9
9.6		B10
8		B11
290		Ac-[Pen]NT[Trp(7-Me)]K(Ac)[Pen][4PipPhe][2Nal][αMeK]K(Ac)N[αMeF]-NH2 (disulfide 1-6) [Compound No. 311]
8.2		pr-[dR][Pen]QTWQ[Pen][AEF][2Nal][Thp]K(Piv)NF-NH2 (disulfide 2-7; reading uncertain) [Compound No. 26]
52		B12

From patent US20220402983A1 (Janssen / Centocor, published 2022)
